From US20050226876A1 (Hoffmann-La Roche, published 2005)

Experiments:
[1] = biological target: T1, human complement factor C1q (human, UniProt P02745 23-245; P02746 28-253; P02747 29-245); experiment: C1q ELISA, antibody coated; background OD405 0.079
T1 construct: also called Clq
Experimental: (§1) In principle, the ELISA plate is coated with concentration ranges of the antibody, to which human C1q or human pooled serum, as a source of C3, is added. C1q or […] binding is detected by an antibody directed against human C1q or […] followed by a peroxidase-labeled conjugate.

[2] = biological target: T2, Fcγ receptor on human NK cells (FcγRIII) (human, UniProt P08637 17-254); experiment: FACS on NK cells from human blood
T2 construct: whole, on cells; also called FcγR presented on NK cells
T2 sequence (P08637 17-254): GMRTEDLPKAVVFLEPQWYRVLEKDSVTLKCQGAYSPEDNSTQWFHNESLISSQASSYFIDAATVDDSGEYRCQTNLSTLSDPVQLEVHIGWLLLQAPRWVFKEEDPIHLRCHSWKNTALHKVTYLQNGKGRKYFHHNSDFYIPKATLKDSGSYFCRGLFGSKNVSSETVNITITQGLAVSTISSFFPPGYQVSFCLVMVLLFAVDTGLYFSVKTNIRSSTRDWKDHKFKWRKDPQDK

[3] = biological target: T3, human complement factor C3 (from human pooled serum) (human, UniProt P01024 23-1663, limits assumed); experiment: C3 ELISA, antibody coated, human pooled serum; background OD405 0.098
T3 construct: The ELISA detects C3 (C3c) deposited on the coated antibody out of serum; also called C3c
T3 sequence (P01024 23-1663 limits assumed): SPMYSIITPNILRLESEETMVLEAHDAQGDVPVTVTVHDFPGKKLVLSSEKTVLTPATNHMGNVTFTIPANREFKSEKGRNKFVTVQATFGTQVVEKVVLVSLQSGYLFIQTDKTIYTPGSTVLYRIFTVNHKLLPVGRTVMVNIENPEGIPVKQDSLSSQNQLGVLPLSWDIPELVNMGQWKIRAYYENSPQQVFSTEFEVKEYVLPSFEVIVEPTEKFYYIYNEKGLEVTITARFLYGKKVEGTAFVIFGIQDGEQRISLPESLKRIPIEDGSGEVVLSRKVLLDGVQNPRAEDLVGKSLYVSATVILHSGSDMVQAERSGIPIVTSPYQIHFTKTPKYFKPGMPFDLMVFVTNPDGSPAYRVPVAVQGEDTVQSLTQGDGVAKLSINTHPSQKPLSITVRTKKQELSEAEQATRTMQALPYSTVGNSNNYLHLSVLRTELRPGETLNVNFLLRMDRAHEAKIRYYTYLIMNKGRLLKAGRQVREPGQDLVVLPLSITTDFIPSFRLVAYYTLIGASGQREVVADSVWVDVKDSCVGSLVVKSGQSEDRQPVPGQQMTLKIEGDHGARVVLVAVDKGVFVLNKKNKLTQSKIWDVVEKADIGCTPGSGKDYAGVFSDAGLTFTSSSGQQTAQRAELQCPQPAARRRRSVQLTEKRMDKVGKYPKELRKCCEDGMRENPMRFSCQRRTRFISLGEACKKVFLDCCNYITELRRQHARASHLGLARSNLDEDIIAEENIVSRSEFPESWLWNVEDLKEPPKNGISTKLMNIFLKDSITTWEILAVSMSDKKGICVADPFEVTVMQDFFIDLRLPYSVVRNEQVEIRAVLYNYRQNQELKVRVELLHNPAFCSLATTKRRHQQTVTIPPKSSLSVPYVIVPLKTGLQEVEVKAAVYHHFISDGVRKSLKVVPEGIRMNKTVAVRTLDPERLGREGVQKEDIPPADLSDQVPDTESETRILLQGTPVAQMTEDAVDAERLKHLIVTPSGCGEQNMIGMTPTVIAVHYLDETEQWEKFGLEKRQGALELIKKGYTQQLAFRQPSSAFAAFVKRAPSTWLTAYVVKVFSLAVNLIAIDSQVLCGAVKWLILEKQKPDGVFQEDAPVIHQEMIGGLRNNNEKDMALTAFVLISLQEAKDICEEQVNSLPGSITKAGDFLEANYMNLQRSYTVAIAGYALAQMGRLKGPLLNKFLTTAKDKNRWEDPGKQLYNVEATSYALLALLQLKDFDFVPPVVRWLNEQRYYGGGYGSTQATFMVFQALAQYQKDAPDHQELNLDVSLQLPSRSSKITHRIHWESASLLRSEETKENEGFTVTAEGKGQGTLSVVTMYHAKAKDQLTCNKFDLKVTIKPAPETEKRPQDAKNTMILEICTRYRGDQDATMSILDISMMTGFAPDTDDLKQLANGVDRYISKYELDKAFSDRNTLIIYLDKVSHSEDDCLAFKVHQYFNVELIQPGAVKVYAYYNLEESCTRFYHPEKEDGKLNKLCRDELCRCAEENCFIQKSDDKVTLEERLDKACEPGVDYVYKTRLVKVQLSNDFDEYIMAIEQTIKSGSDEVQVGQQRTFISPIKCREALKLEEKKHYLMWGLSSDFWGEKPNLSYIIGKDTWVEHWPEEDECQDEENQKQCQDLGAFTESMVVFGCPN
Experimental: as §1

[4] = biological target: T4, P-selectin on thrombin-activated human platelets (human, UniProt P16109 42-830); experiment: cell-based or functional assay
T4 sequence (looked up): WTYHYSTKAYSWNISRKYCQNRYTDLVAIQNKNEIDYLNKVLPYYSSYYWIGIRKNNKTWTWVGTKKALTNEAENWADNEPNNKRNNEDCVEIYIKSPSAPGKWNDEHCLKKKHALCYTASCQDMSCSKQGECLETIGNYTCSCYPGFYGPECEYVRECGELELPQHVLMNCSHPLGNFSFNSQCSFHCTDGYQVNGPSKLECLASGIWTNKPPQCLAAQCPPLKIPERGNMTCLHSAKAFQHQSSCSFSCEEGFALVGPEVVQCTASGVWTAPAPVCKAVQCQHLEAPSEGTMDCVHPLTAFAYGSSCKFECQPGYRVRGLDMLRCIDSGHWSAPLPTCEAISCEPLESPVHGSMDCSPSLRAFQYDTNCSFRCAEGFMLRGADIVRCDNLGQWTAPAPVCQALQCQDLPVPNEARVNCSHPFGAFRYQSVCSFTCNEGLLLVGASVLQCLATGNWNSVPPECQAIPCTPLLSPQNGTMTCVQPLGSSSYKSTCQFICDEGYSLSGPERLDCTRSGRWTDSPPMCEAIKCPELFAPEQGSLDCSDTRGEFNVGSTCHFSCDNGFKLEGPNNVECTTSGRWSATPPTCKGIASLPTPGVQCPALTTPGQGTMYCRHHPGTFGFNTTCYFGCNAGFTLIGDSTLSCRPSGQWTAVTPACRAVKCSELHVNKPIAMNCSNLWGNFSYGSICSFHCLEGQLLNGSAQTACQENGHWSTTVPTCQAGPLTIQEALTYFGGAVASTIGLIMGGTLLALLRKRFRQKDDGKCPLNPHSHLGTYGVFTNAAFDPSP

[5] = biological target: T5, rat P-selectin (on thrombin-activated rat platelets) (rat, UniProt P98106 42-768); experiment: rosetting assay: adhesion of thrombin-activated rat platelets to HL60 cells, FACS; absence of inhibition, shown as lack of cross-reactivity with rat P-selectin
T5 construct: whole, on cells
T5 sequence (looked up): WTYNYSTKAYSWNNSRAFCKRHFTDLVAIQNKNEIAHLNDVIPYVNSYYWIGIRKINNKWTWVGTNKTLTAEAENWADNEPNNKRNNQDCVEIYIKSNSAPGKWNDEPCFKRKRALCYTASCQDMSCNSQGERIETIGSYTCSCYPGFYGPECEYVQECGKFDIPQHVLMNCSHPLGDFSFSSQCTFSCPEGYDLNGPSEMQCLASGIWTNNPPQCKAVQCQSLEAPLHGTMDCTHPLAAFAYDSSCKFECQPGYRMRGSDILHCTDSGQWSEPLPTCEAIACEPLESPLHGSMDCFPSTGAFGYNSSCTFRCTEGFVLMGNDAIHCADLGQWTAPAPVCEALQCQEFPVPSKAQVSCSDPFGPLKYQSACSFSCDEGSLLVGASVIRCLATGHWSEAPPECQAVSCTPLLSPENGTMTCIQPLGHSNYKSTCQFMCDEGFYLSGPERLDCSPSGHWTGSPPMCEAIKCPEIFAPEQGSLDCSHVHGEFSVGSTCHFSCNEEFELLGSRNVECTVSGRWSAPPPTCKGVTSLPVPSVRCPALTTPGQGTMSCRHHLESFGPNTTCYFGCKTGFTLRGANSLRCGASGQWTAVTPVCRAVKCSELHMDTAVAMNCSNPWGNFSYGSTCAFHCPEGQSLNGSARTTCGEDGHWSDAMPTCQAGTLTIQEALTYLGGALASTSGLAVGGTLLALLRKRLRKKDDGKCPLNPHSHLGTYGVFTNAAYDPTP

[6] = biological target: T1, human complement factor C1q; experiment: C1q ELISA, antibody coated 0.16-20 µg/ml
Experimental: as §1

T1 sequence (P02745 23-245 limits assumed, chain 1 of 3): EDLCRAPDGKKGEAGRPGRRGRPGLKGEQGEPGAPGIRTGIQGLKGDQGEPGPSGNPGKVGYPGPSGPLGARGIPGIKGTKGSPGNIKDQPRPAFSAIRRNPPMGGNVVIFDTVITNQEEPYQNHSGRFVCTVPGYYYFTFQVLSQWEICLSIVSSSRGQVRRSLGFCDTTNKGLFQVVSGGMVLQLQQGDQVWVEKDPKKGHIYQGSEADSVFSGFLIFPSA
T1 sequence (P02746 28-253 limits assumed, chain 2 of 3): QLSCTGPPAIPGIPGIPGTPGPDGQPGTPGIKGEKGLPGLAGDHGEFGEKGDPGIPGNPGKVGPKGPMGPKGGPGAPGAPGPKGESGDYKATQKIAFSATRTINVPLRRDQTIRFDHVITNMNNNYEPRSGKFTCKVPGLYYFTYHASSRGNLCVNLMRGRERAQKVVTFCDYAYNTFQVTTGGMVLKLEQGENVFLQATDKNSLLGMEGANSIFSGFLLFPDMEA
T1 sequence (P02747 29-245 limits assumed, chain 3 of 3): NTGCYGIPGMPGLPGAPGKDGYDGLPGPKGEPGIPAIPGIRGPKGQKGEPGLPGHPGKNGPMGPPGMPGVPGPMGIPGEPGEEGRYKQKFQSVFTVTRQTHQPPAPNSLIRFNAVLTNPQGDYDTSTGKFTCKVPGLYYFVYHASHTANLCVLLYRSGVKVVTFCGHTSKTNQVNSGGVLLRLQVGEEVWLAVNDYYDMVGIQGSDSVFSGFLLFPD

B1: HuMab 002 Fc variant IgG1v1 (PVA-236; GLPSS331: E233P; L234V; L235A; delta G236; A327G; A330S; P331S) (antibody)
heavy: EVQLVESGGGLVRPGGSLRLSCAASGFTFSNYDMHWVRQATGKGLEWVSAITAAGDIYYPGSVKGRFTISRENAKNSLYLQMNSLRAGDTAVYYCARGRYSGSGSYYNDWFDPWGQGTLVTVSSASTKGPSVFPLAPSSKSTSGGTAALGCLVKDYFPEPVTVSWNSGALTSGVHTFPAVLQSSGLYSLSSVVTVPSSSLGTQTYICNVNHKPSNTKVDKKVEPKSCDKTHTCPPCPAPPVAGPSVFLFPPKPKDTLMISRTPEVTCVVVDVSHEDPEVKFNWYVDGVEVHNAKTKPREEQYNSTYRVVSVLTVLHQDWLNGKEYKCKVSNKGLPSSIEKTISKAKGQPREPQVYTLPPSRDELTKNQVSLTCLVKGFYPSDIAVEWESNGQPENNYKTTPPVLDSDGSFFLYSKLTVDKSRWQQGNVFSCSVMHEALHNHYTQKSLSLSPGK
light: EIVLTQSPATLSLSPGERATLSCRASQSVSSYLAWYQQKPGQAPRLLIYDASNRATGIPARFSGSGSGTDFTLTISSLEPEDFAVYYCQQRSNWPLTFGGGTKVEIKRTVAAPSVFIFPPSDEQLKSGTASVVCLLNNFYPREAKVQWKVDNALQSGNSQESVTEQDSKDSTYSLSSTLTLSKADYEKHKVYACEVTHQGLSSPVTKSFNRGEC
notes: copies: 2 + 2
Bmax (OD405 at 10 µg/ml) [1]: 0.0119 OD405
binding result [2]: no binding (tested: 10 µg/ml)
Bmax (OD405 at 10 µg/ml) [3]: 0.156 OD405
IC50 (read off the curve), rosetting assay with thrombin-activated human platelets and HL60 cells [4]: ~0.08 µg/mL
binding result [5]: no binding (tested: 100 µg/ml)
binding result [6]: no binding
